Consider one molecule from PMC7561547 (2020).

In this experiment the target is FGFR2b (Homo sapiens, UniProt P21802). Description: SPR.

B1: bemarituzumab (antibody, V domains shown)
VH: QVQLVQSGAEVKKPGSSVKVSCKASGYIFTTYNVHWVRQAPGQGLEWIGSIYPDNGDTSYNQNFKGRATITADKSTSTAYMELSSLRSEDTAVYYCARGDFAYWGQGTLVTVSS
VL: DIQMTQSPSSLSASVGDRVTITCKASQGVSNDVAWYQQKPGKAPKLLIYSASYRYTGVPSRFSGSGSGTDFTFTISSLQPEDIATYYCQQHSTTPYTFGQGTKLEIKR
In turn, B1 came in with an equilibrium dissociation constant (Kd) of 0.58 nM.

As usually defined, the Kd is the equilibrium constant for the complex coming apart. High values mean a looser complex, low ones a tighter complex.
